Data: patent US20240141039A1 (AGENUS, published 2024)

T1: wild type full-length human CD96 isoform 2 expressed on CHO cells (human, UniProt P40200-2 22-569)
T1 construct: whole, on cells; also called human CD96-CHO (isoform 2); human CD96 (iso2) CHO cells
T1 sequence (looked up): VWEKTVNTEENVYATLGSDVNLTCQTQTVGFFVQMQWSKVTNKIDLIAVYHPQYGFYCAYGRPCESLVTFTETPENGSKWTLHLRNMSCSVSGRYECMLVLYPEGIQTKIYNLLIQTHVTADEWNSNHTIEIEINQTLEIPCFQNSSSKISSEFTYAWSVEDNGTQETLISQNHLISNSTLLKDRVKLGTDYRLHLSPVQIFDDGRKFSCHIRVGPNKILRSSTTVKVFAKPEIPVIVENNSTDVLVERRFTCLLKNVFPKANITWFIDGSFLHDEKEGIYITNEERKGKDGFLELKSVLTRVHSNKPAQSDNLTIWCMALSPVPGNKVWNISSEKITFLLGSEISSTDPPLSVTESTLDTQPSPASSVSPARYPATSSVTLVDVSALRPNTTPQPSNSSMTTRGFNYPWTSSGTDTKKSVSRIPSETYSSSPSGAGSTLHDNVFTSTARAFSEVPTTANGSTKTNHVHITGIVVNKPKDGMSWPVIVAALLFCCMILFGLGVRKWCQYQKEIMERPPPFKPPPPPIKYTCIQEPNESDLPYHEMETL

T2: full-length isoform 2 ECD of human CD96 with a C89S mutation (His-tagged) (human, UniProt P40200 22-519)
T2 construct: also called His-tagged isoform 2 of human CD96 with a C89S mutation; human CD96 extracellular domain isoform 2 C89S
T2 sequence: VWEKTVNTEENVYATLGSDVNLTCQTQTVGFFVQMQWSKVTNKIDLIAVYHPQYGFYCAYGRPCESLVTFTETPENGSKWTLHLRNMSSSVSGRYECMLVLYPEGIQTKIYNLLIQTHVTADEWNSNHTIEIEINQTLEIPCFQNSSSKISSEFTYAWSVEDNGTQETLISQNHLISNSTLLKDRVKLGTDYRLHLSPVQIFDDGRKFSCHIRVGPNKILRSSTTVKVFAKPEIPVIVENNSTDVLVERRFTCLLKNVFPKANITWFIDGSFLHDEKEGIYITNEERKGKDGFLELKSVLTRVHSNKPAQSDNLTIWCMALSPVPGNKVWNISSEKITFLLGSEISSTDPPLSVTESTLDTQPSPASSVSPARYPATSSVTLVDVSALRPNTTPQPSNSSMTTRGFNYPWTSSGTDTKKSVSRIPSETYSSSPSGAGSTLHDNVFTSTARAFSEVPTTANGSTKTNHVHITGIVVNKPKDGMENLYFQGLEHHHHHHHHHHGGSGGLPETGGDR


How the values were obtained:
[1] = molecular target: T1, wild type full-length human CD96 …; assay: flow cytometry on CHO cells expressing human CD96 isoform 2, PE anti-human IgG Fc detection
Procedure: For the antibody binding assay, a frozen aliquot of human CD96-CHO cells (isoform 1 or isoform 2) was thawed at 37° C. and then transferred to a tube containing DPBS supplemented with 0.5% Bovine Serum Albumin and 0.05% Sodium Azide (FACS Buffer). Cells were centrifuged at 300 g for five minutes. The supernatant was discarded, and cells resuspended in FACS buffer were seeded in a 96-well U-bottom tissue culture plate at a density of 2×10⁵ cells per well in 50 μL. In a separate microplate, a 2× concentrated intermediate stock of each antibody was prepared. Antibodies were serially diluted 1-to-3 in FACS buffer. A total of 11 working dilutions ranging from 60 μg/mL to 0.001 μg/mL were prepared. Fifty microlitres of each dilution were then transferred to the microplate containing human CD96-CHO cells. The cells were then incubated for 45 minutes at 4° C. […] After a 30-minute incubation on ice, the cells were washed twice with cold FACS Buffer, and the cells were analyzed by flow cytometry (BD LSR Fortessa Flow Cytometer). The data were analyzed using the FlowJo software by sequentially gating the FSC-A vs. SSC-A, and SSC-H vs. SSC-A. Mean fluorescence intensity (MFI) values for PE were calculated, and the data were plotted by GraphPad Prism software.

[2] = molecular target: T1, wild type full-length human CD96 …; assay: flow cytometry, blocking of CD155-Fc-PE binding to human CD96 (isoform 2) CHO cells, geomean of 3 experiments
Procedure: A 4× concentrated intermediate stock of each multispecific molecule was prepared in a microplate. Antibodies were serially diluted 1-to-3 in FACS buffer. […] Lastly, 25 μL of wild type human CD96-CHO cells (isoform 2), prepared as described above, were added to each well. After a 30-minute incubation on ice, the cells were washed twice with cold FACS Buffer, and the cells were analyzed by flow cytometry (BD LSR Fortessa Flow Cytometer). The data were analyzed using the FlowJo software by sequentially gating on the FSC-A vs. SSC-A and SSC-H vs. SSC-A. Mean fluorescence intensity (MFI) values for PE were calculated, and the data were plotted by GraphPad Prism software and analyzed as described above.

[3] = molecular target: T3, full-length ECD of cynomolgus monkey TIGIT (His-tagged) (cynomolgus monkey); assay: SPR Biacore T200, geomean of experiments #1 and #2
T3 construct: also called His-tagged cynomolgus monkey TIGIT; cyno TIGIT extracellular domain
Procedure: (§1) Briefly, surface plasmon resonance experiments were performed using a Biacore T200 instrument, and the association rate (kₐ), dissociation rate (kd), and dissociation constant (KD) were calculated from each experiment using a 1:1 binding model with Biacore T200 Evaluation Software.
(§2) Multispecific molecules were captured using a 30-sec injection at a flow rate of 10 μl/min to reach about 350 resonance units (RUs). […] The sensor chip was regenerated between cycles with two 30-sec injections of 10 mM glycine, pH 1.5. Sensorgrams were evaluated and fit to a simple Langmuir 1:1 interaction model using the global data analysis option of BIAevaluation 3.0 software. Data quality was verified by visually inspecting deviations and curve fitting, and by evaluating the parameters of Rₘₐₓ, Chi2, and Tc.

[4] = molecular target: T2, full-length isoform 2 ECD of human CD96 …; assay: SPR Biacore T200, geomean of experiments #1 and #2
Procedure: as §1, §2

[5] = molecular target: T3, full-length ECD of cynomolgus monkey …; assay: SPR Biacore T200, Protein A capture, 1:1 model, experiment #1
Procedure: as §1, §2

[6] = molecular target: T2, full-length isoform 2 ECD of human CD96 …; assay: as above
Procedure: as §1, §2

[7] = molecular target: T4, wild type full-length cynomolgus monkey TIGIT expressed on CHO cells (cynomolgus monkey, UniProt A0A7N9I9V4 89-312); assay: flow cytometry, blocking of CD155-Fc-PE binding to cynomolgus TIGIT CHO cells, geomean of 2 experiments
T4 construct: whole, on cells; also called cynomolgus TIGIT-CHO cells
T4 sequence (A0A7N9I9V4 entry or part of it): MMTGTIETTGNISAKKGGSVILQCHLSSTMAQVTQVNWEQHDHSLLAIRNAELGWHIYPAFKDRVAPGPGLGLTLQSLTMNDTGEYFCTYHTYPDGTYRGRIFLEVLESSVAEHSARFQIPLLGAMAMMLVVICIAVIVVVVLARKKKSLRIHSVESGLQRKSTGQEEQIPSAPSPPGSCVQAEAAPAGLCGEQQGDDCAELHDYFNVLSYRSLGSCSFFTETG

EC50 (read off the curve) [1] [µg/mL] | IC50 [2] [µg/mL] | Kd [3] [nM] | Kd [4] [nM] | Kd [5] [nM] | koff [5] [s⁻¹] | kon [5] [M⁻¹ s⁻¹] | Kd [6] [nM] | koff [6] [s⁻¹] | kon [6] [M⁻¹ s⁻¹] | IC50 [7] [µg/mL] | Binder
~0.2 | 5.63 | 4.5 | 81.9 | 4.78 | 0.00132 | 277000 | 79 | 0.00125 | 15800 | 2.35 | anti-TIGIT×CD96 multispecific molecule BA123 (bispecific antibody, human IgG1, kappa, lambda, copies: 1 + 1 + 1 + 1) heavy 1: QVQLVQSGAEVKKPGASVKVSCKASGYTFTSYGISWVRQAPGQGLEWMGWISAYNANTNYAQKLQGRVTMTTDTSTSTAYMELRSLRSDDTAVYYCARSAGVLGGMDVWGRGTLVTVSSASTKGPSVFPLAPSSKSTSGGTAALGCLVKDYFPEPVTVSWNSGALTSGVHTFPAVLQSSGLYSLSSVVTVPSSSLGTQTYICNVNHKPSNTKVDKRVEPKSCDKTHTCPPCPAPELLGGPDVFLFPPKPKDTLMISRTPEVTCVVVDVSHEDPEVKFNWYVDGVEVHNAKTKPREEQYNSTYRVVSVLTVLHQDWLNGKEYKCKVSNKALPAPIEKTISKAKGQPREPQVYTLPPSREEMTKNQVSLSCAVKGFYPSDIAVEWESNGQPENNYKTTPPVLDSDGSFFLVSKLTVDKSRWQQGNVFSCSVMHEALHNHYTQKSLSLSPG light 1: not shown heavy 2: EVQLVQSGAEVKKPGSSVKVSCKASGYTFASYGISWVRQAPGQGLEWMGGITPFFNRVDVAEKFQGRVTITADKSTSTAYIELSSLRSEDTAVYYCARDLRRGGVGDAFDIWGRGTLVTVSSASTKGPSVFPLAPSSKSTSGGTAALGCLVKDYFPEPVTVSWNSGALTSGVHTFPAVLQSSGLYSLSSVVTVPSSSLGTQTYICNVNHKPSNTKVDKRVEPKSCDKTHTCPPCPAPELLGGPDVFLFPPKPKDTLMISRTPEVTCVVVDVSHEDPEVKFNWYVDGVEVHNAKTKPREEQYNSTYRVVSVLTVLHQDWLNGKEYKCKVSNKALPLPEEKTISKAKGQPREPQVYTLPPSREEMTKNQVSLWCLVKGFYPSDIAVEWESNGQPENNYKTTPPVLDSDGSFFLYSKLTVDKSRWQQGNVFSCSVMHEALHNHYTQKSLSLSPG light 2: QSALTQPRSVSGSPGQSVTISCTGTSPDVGSHAYRSWYQQHPGKAPKLMIYEVSYRPSGVSNRFSGSKSGNTASLTISGLQAEDEADYYCSSYPPSSATVFGAGTKLTVLGQPKAAPSVTLFPPSSEELQANKATLVCLISDFYPGAVTVAWKADSSPVKAGVETTTPSKQSNNKYAASSYLSLTPEQWKSHRSYSCQVTHEGSTVEKTVAPTEC
~0.03 | 1.99 | 4 | 19.6 | 4.29 | 0.00126 | 294000 | 19.6 | 0.00116 | 59200 | 2.81 | anti-TIGIT×CD96 multispecific molecule BA127 (bispecific antibody, human IgG1, kappa, lambda, Anti-CD96 arm = BA139, anti-TIGIT arm = BA150; copies: 1 + 1 + 1 + 1) heavy 1: QVQLVQSGAEVKKPGASVKVSCKASGYTFTTYALHWVRQAPGQRLEWMGWINTGSGDTKYSQKFQGRVTITRDTSASTAYMELSSLRSEDTAVYYCARSLGVYYGMDVWGQGTLVTVSSASTKGPSVFPLAPSSKSTSGGTAALGCLVKDYFPEPVTVSWNSGALTSGVHTFPAVLQSSGLYSLSSVVTVPSSSLGTQTYICNVNHKPSNTKVDKRVEPKSCDKTHTCPPCPAPELLGGPDVFLFPPKPKDTLMISRTPEVTCVVVDVSHEDPEVKFNWYVDGVEVHNAKTKPREEQYNSTYRVVSVLTVLHQDWLNGKEYKCKVSNKALPAPIEKTISKAKGQPREPQVYTLPPSREEMTKNQVSLSCAVKGFYPSDIAVEWESNGQPENNYKTTPPVLDSDGSFFLVSKLTVDKSRWQQGNVFSCSVMHEALHNHYTQKSLSLSPG light 1: not shown heavy 2: EVQLVQSGAEVKKPGSSVKVSCKASGYTFASYGISWVRQAPGQGLEWMGGITPFFNRVDVAEKFQGRVTITADKSTSTAYIELSSLRSEDTAVYYCARDLRRGGVGDAFDIWGRGTLVTVSSASTKGPSVFPLAPSSKSTSGGTAALGCLVKDYFPEPVTVSWNSGALTSGVHTFPAVLQSSGLYSLSSVVTVPSSSLGTQTYICNVNHKPSNTKVDKRVEPKSCDKTHTCPPCPAPELLGGPDVFLFPPKPKDTLMISRTPEVTCVVVDVSHEDPEVKFNWYVDGVEVHNAKTKPREEQYNSTYRVVSVLTVLHQDWLNGKEYKCKVSNKALPLPEEKTISKAKGQPREPQVYTLPPSREEMTKNQVSLWCLVKGFYPSDIAVEWESNGQPENNYKTTPPVLDSDGSFFLYSKLTVDKSRWQQGNVFSCSVMHEALHNHYTQKSLSLSPG light 2: QSALTQPRSVSGSPGQSVTISCTGTSPDVGSHAYRSWYQQHPGKAPKLMIYEVSYRPSGVSNRFSGSKSGNTASLTISGLQAEDEADYYCSSYPPSSATVFGAGTKLTVLGQPKAAPSVTLFPPSSEELQANKATLVCLISDFYPGAVTVAWKADSSPVKAGVETTTPSKQSNNKYAASSYLSLTPEQWKSHRSYSCQVTHEGSTVEKTVAPTEC
